Reference: patent US20240141071A1 (LAVA THERAPEUTICS N V, published 2024)
Values belong to the binder of their own block, whether it stands above or below them.

How the values were obtained:
[1] = molecular target: T1, Recombinant, purified CD123 antigen (extra-cellular domain; Sino Biological) (human, UniProt P26951 19-305); assay: phage ELISA on recombinant captured CD123 antigen
T1 construct: Bought; also called recombinant human CD123
T1 sequence: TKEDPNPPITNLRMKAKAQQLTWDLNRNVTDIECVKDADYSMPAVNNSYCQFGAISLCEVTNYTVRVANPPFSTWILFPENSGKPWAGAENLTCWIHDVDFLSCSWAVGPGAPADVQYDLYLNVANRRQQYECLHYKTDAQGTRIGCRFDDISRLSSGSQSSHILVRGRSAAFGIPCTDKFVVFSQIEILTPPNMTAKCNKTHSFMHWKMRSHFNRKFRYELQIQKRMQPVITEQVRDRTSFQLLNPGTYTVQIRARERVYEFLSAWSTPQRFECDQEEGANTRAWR

[2] = molecular target: T2, human CD123 expressed on cells (human, UniProt P26951 19-378); assay: flow cytometry on CD123 expressing C1R-CD1d cells (cell line used for immunization)
T2 construct: also called interleukin-3 receptor alpha chain

[3] = molecular target: T2, human CD123 expressed on cells; assay: cell-based or functional assay
BSA = molecular target: T3, BSA (bovine, UniProt P02769); assay: ELISA, wells coated with 1% BSA (panel BSA), HRP anti-VHH detection
T3 construct: also called bovine serum albumin, negative control coating
Source text: FIG. 1: ELISA showing binding of all different bispecific VHHs to CD123, the Vγ9Vδ2 (GDT) TCR and BSA (as negative control). OD values are depicted; values are the mean of duplicate measurements; error bars indicate standard errors of the mean. A mono-valent anti-Vδ2 VHH was used as control for the TCR staining (“TCR control”) and a commercially available anti-CD123 antibody (“anti-CD123”) was used as control for the CD123 antigen coatings. “No AB” indicates a negative control without primary antibody.
Recombinant, purified CD123 antigen (extra-cellular domain; Sino Biological), or an Fc-fusion of the CD123 antigen (Bio-Techne/R&D Systems) was coated to the wells of an ELISA plate (Greiner) in PBS at a concentration of 2 μg/ml. As a negative control, wells were coated with 1% (w/v) BSA. An in-house designed, produced and purified recombinant form of the extra-cellular domains of the human Vγ9 and Vδ2 TCR chains fused to a human Fc was also coated as antigen at 2 μg/ml. After coating and blocking of the wells with 2% (w/v) BSA, bispecific VHH proteins were tested for binding at a saturating concentration of 50 nM and bound VHH was detected using an HRP-labeled anti-VHH antibody (Genscript) and staining using 3,3′,5,5′-tetramethylbenzidine (TMB)/H2O2.

[4] = molecular target: T4, human CD131 (common β chain of the IL3 receptor) expressed on 293F cells (human, UniProt P32927 17-897); assay: flow cytometry on 293F cells transiently expressing CD131, AF647-labeled anti-VHH detection
T4 sequence: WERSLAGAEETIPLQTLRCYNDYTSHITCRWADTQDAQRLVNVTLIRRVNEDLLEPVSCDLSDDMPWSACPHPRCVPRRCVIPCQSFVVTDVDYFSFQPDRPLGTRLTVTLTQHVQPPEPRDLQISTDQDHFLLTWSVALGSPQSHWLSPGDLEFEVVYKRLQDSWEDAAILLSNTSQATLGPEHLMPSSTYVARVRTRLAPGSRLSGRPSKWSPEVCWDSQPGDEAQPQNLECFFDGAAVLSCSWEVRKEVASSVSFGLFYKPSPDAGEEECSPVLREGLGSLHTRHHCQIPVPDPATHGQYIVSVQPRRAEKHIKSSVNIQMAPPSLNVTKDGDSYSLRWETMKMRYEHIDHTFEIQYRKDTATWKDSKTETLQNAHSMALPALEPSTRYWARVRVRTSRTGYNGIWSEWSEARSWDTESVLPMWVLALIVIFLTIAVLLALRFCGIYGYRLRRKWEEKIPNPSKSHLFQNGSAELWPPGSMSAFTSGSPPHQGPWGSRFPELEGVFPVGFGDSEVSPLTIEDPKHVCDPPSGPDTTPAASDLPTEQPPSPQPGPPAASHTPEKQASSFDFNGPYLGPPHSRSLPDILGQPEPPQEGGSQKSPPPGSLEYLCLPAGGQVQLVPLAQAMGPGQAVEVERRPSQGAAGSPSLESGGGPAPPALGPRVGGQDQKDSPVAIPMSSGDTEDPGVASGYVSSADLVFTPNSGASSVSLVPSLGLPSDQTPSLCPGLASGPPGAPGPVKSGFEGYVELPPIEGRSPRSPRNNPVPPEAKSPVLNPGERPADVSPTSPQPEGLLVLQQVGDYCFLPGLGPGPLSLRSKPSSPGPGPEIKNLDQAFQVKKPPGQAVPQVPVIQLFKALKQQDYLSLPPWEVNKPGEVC
Method: Expression constructs for human CD123 and for the common β chain of the receptor (CD131) were purchased from Invivogen. Plasmids were transformed to chemically competent DH5α bacteria and a single colony growing on selective medium was used to inoculate a 50 ml culture to amplify both constructs. […] Either plasmid alone, or a mix of the two plasmids was used for transfection. As negative control, untransfected cells were also used for flow cytometry. A day after transfection, cells were used to test the binding of the bispecific VHH using staining in FACS. Briefly, binding of a saturating concentration of 100 nM bispecific VHH to transfected cells was detected with an AF647-labeled anti-VHH (Genscript) antibody and staining was visualized using a FACS Celesta (Becton and Dickinson).

[5] = molecular target: T5, recombinant purified CD123-Fc fusion protein (Bio-Techne/R&D Systems) (human, UniProt P26951 19-305); assay: BLI, CD123-Fc on anti-human IgG Fc capture sensors; *low binding (>20 nM), one measurement only
T5 construct: Bought; also called Fc-fusion of the CD123 antigen; recombinant CD123
T5 sequence: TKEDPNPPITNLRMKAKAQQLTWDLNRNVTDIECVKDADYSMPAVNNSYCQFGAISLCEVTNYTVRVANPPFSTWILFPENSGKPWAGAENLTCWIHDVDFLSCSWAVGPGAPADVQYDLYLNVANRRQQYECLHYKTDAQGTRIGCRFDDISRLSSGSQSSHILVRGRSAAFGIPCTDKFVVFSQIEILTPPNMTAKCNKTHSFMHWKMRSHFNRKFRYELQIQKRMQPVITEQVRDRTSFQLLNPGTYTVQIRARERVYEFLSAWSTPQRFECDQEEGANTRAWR
Method: (§1) To determine the kinetics of binding of humanized 1D2-5C8var1 variants to CD123, recombinant purified CD123-Fc fusion protein (Bio-Techne/R&D Systems) was loaded to a density of 1 nm onto anti-human IgG Fc Capture sensors (using a concentration of 5 μg/ml) for an Octet Red96e (Sartorius) instrument. Different sensors were then dipped in different concentrations of humanized 1D2-5C8var1 variants, starting at 50 nM and two-fold dilutions thereof; dilutions were made in 10× kinetic buffer (10×KB) provided by the supplier. From the obtained sensorgrams, the kinetic association- and dissociation rate constants were determined by curve fitting. The association- and dissociation rate constants, when fitting was possible, were used to calculate the affinity of the humanized 1D2-5C8var1 variants for binding to CD123. […] For reference, the non-humanized (parental) 1D2 was included in these experiments.

[6] = molecular target: T5, recombinant purified CD123-Fc fusion …; assay: BLI, CD123-Fc on anti-human IgG Fc capture sensors; SD 7.5
Method: as §1

T3 sequence (P02769 25-607 limits assumed): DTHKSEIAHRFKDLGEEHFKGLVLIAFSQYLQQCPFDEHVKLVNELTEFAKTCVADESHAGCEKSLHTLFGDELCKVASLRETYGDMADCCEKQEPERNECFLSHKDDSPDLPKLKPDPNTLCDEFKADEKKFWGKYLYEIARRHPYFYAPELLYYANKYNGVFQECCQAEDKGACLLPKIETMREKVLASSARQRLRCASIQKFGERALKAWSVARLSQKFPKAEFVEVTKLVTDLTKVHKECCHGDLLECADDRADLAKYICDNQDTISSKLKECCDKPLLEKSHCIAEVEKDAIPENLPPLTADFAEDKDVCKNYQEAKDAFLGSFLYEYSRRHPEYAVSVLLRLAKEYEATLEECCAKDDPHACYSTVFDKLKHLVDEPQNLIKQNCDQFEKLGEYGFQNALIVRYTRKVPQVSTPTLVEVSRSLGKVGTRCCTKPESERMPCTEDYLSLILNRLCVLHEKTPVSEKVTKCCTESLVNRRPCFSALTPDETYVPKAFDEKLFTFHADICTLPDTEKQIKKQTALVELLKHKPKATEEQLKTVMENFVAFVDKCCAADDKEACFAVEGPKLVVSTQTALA

Kd [5]: 24.5 nM
B5: humanized 1D2-5C8var1 variant with 1D2 var2 (SEQ ID NO:26) (bispecific antibody)
chain: EVQLVESGGGLVQPGGSLRLSCAASGRTASSYVMGWVRQAPGKEREWVSVINWNGDSTYYADSVKGRFTISRDNSKNTLYLQMNSLRAEDTAVYYCAADTRREWYRDGYWGPPARYEYDYRGQGTLVTVSSGGGGSEVQLLESGGGSVQPGGSLRLSCAASGRPFSNYAMSWFRQAPGKEREFVSAISWSGGSTSYADSVKGRFTISRDNSKNTLYLQMNSLRAEDTAVYYCAAQFSGADYGFGRLGIRGYEYDYWGQGTQVTVSSAAAEPEA
notes: See note of m19

Kd [5]: 29.1 nM
B6: humanized 1D2-5C8var1 variant with 1D2 var6 (SEQ ID NO:30) (bispecific antibody)
chain: EVQLVESGGGLVQPGGSLRLSCAASGRTASSYVMGWVRQAPGKGLEWVSVINWNGDSTYYADSVKGRFTISRDNSKNTLYLQMNSLRAEDTAVYYCAADTRREWYRDGYWGPPARYEYDYRGQGTLVTVSSGGGGSEVQLLESGGGSVQPGGSLRLSCAASGRPFSNYAMSWFRQAPGKEREFVSAISWSGGSTSYADSVKGRFTISRDNSKNTLYLQMNSLRAEDTAVYYCAAQFSGADYGFGRLGIRGYEYDYWGQGTQVTVSSAAAEPEA
notes: See note of m19

Kd [5]: 44.1 nM
B7: humanized 1D2-5C8var1 variant with 1D2 var8 (SEQ ID NO:32) (bispecific antibody)
chain: EVQLVESGGGLVQPGGSLRLSCAASGRTASSYVMSWFRQAPGKGLEWVAVINWNGDSTYYADSVKGRFTISRDNSKNTVYLQMNSLRAEDTAVYYCAADTRREWYRDGYWGPPARYEYDYRGQGTLVTVSSGGGGSEVQLLESGGGSVQPGGSLRLSCAASGRPFSNYAMSWFRQAPGKEREFVSAISWSGGSTSYADSVKGRFTISRDNSKNTLYLQMNSLRAEDTAVYYCAAQFSGADYGFGRLGIRGYEYDYWGQGTQVTVSSAAAEPEA
notes: See note of m19

Kd [6]: 20 nM
B8: humanized 1D2-5C8var1 variant with 1D2 var4 (SEQ ID NO:28) (bispecific antibody)
chain: EVQLVESGGGVVQPGGSLRLSCAASGRTASSYVMSWFRQAPGKEREWVAVINWNGDSTYYADSVKGRFTISRDNSKNTLYLQMNSLRAEDTAVYYCAADTRREWYRDGYWGPPARYEYDYRGQGTTVTVSSGGGGSEVQLLESGGGSVQPGGSLRLSCAASGRPFSNYAMSWFRQAPGKEREFVSAISWSGGSTSYADSVKGRFTISRDNSKNTLYLQMNSLRAEDTAVYYCAAQFSGADYGFGRLGIRGYEYDYWGQGTQVTVSSAAAEPEA
notes: See note of m19

Kd [6]: 10.4 nM
B9: humanized 1D2-5C8var1 variant with 1D2 var10 (SEQ ID NO:34) (bispecific antibody)
chain: EVQLVESGGGLVQPGGSLRLSCAASGRTASSYVMGWFRQAPGKEREFVSVINWNGDSTYYADSVKGRFTISRDNSKNTLYLQMNSLRAEDTAVYYCAADTRREWYRDGFWGPPARYEYDYRGQGTQVTVSSGGGGSEVQLLESGGGSVQPGGSLRLSCAASGRPFSNYAMSWFRQAPGKEREFVSAISWSGGSTSYADSVKGRFTISRDNSKNTLYLQMNSLRAEDTAVYYCAAQFSGADYGFGRLGIRGYEYDYWGQGTQVTVSSAAAEPEA
notes: See note of m19

More lines, now with the values behind:

B1: anti-CD123 VHH 1A3 (VHH)
VHH: EVQLVESGGGLVQAGGSLRLSCAASGRAINTYAMAWFRQAPGKERDFVATISYSGGTTDYAGSVKGRFTISRDNAENTVYLQMNSLKPEDTAVYYCAARDRYNPLARNYNYWGQGTQVTVSS
binding result [1]: binds | binding result [2]: binds

B2: 1A3-5C8var1 bispecific VHH (bispecific antibody)
chain: EVQLVESGGGLVQAGGSLRLSCAASGRAINTYAMAWFRQAPGKERDFVATISYSGGTTDYAGSVKGRFTISRDNAENTVYLQMNSLKPEDTAVYYCAARDRYNPLARNYNYWGQGTQVTVSSGGGGSEVQLLESGGGSVQPGGSLRLSCAASGRPFSNYAMSWFRQAPGKEREFVSAISWSGGSTSYADSVKGRFTISRDNSKNTLYLQMNSLRAEDTAVYYCAAQFSGADYGFGRLGIRGYEYDYWGQGTQVTVSSAAAEPEA
notes: Same format as 1D2-5C8var1
EC50 of THP-1 target cell lysis by Vγ9Vδ2 T cells [3]: ~50 pM | binding result (BSA): no binding (tested: 50 nM (single concentration)) | binding result [4]: no binding (tested: 100 nM (single concentration))

B3: 1D2-5C8var1(Y105F)-Fc (bispecific antibody, human IgG1, V domains shown)
V domain 1: EVQLVESGGGLVQAGGSLRLSCAASGRTASSYVMGWFRQAPGKEREFVAVINWNGDSTYYTDSVKGRFAISRDNAKNTVYLQMNSLKPEDTAVYYCAADTRREWYRDGYWGPPARYEYDYRGQGTQVTVSS
V domain 2: EVQLLESGGGSVQPGGSLRLSCAASGRPFSNYAMSWFRQAPGKEREFVSAISWSGGSTSYADSVKGRFTISRDNSKNTLYLQMNSLRAEDTAVYYCAAQFSGADFGFGRLGIRGYEYDYWGQGTQVTVSS
EC50 of THP-1 lysis, donor nr. 2 [3]: 1 pM | EC50 of THP-1 target cell lysis by Vγ9Vδ2 T cells, 24 h [3]: 1 to 3 pM | EC50 of THP-1 target cell lysis in THP-1/pDC/Vγ9Vδ2 T cell co-culture [3]: ~1 pM | EC50 of pDC lysis relative to THP-1 cell lysis [3]: ~10 fold | EC50 of pDC lysis, donor nr. 2 [3]: 11 pM

B4: anti-CD123 VHH 1D2 (VHH)
VHH: EVQLVESGGGLVQAGGSLRLSCAASGRTASSYVMGWFRQAPGKEREFVAVINWNGDSTYYTDSVKGRFAISRDNAKNTVYLQMNSLKPEDTAVYYCAADTRREWYRDGYWGPPARYEYDYRGQGTQVTVSS
notes: also called 1D2 VHH; lead anti-CD123 antibody
binding result [1]: binds | binding result [2]: binds
